Here are results for 41 sequences from the nanobody polyreactivity screen of Harvey et al. (2022).

A short description of this data set: yeast display, Sf9 membrane polyspecificity reagent, FACS + sequencing; frameworks hold sequencing errors. In a few lines: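 Sorting gates, low and high (top ~1%), were placed on anti-HA fluorescence to track expression and on streptavidin fluorescence to track reagent binding. A clone's polyreactivity label is taken from the gate it came out of. The reagent was 10% biotinylated, detergent-solubilized Sf9 membrane, applied for 1 hour at 4 °C to galactose-induced yeast display cells.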
As to “QVQLVESGGGLVQAGGSLRLSCAASGSIFYHYAMGWYRQAPGKERELVAAISQSGGGTYYADSVKGRFTISRDNAKNTVYLQMNSLKPEDTAVYYCNRLSKQKQEFDYWGQGTQVTVSS”, the “polyreactivity (PSR sort gate)” value was “high polyreactivity”.

In the case of “QVQLVESGGGLVQAGGSLRLSCAASGSIFYINAMGWYRQAPGKERELVAAINRGGSTNYADSVKGRFTISRDNAKNTVYLQMNSLKPEDTAVYYCAAYIYKTYRYYYWGQGTQVTVSS”, the “polyreactivity (PSR sort gate)” value is “high polyreactivity”.

On to “QVQLVESGGGLVQAGGSLRLSCAASGSIFYIYALGWYRQAPGKERELVAAISRSGGRTYYADSVKGRFTISRDNAKNTVYLQMNSLKPEDTGVYYCAARRYTAYDYWGQGTQVTVSS”, for which the “polyreactivity (PSR sort gate)” value is “high polyreactivity”.

On to “QVQLVESGGGLVQAGGSLRLSCAASGSIFYIYAMGWYRQAPGKERELVARISTGGSTHYADSVKGRFTISRDNAKNTVYLQMNSLKPEDTAVYYCDAPYWLWDGEGEYDYWGQGTQVTVSS”, for which the “polyreactivity (PSR sort gate)” value is listed as “low polyreactivity”.

“QVQLVESGGGLVQAGGSLRLSCAASGSIFYIYAMGWYRQAPGKERELVATISHRGGSTYYADSVKGRFTISRDNAKNTVYLQMNSLKPEDTAVYYCAARSYYSWGRPLPSFNYWGQGTQVTVSS”: the “polyreactivity (PSR sort gate)” value was “high polyreactivity”.

With “QVQLVESGGGLVQAGGSLRLSCAASGSIFYKNAMGWYRQAPGKERELVAAITYSGGSTYYADSVKGRFTISRDNAKNTVYLQMNSLKTEDTAVYYCAADIGVYGERREEEYDYWGQGTQVTVSS”, the “polyreactivity (PSR sort gate)” value was “low polyreactivity”.

As for “QVQLVESGGGLVQAGGSLRLSCAASGSIFYKNAMGWYRQAPGKERELVAVISWSGGSTSYADSVKGRFTISRDNAKNTVYLQMNSLKPEDTAVYYCAKEYFTDYLYEYDYWGQGTQVTVSS”, the “polyreactivity (PSR sort gate)” value is on record as “low polyreactivity”.

For “QVQLVESGGGLVQAGGSLRLSCAASGSIFYKYTMGWYRPAPGKERELVAAISRSGGRTYYADSVKGRFTISRDNAKNTVYLQMNSLKPEDTAVYYCARDLKIVEYDYWGQGTQVTVSS”, the “polyreactivity (PSR sort gate)” value is “low polyreactivity”.

“QVQLVESGGGLVQAGGSLRLSCAASGSIFYLNAMGWYRQAPGKERELVATISNGGSTNYADSVKGRFTISRDNAKNTVYLQMNSLKPEDTAVYYCATGVIREGDYWGQGTKVTVSS”: the “polyreactivity (PSR sort gate)” value was “low polyreactivity”.

“QVQLVESGGGLVQAGGSLRLSCAASGSIFYLYAMGWYRQAPGKERELVAAITSIGGSTYADSVKGRFTISRDNAKNTVYLQMNSLKPEDTAVYYCNADGLYEKWGPWTVPYYYWGQGTQVTVSS”: the “polyreactivity (PSR sort gate)” value was “low polyreactivity”.

Take “QVQLVESGGGLVQAGGSLRLSCAASGSIFYLYAMGWYRQAPGKERELVATISTGSGRTYYADSVKGRFTISRDNAKNTVYLQMNSLKPEDTAVYYCAASRTLRKHRYEYWGQGTEVTVSS”: the “polyreactivity (PSR sort gate)” value is recorded as “high polyreactivity”.

Regarding “QVQLVESGGGLVQAGGSLRLSCAASGSIFYPYAMGWYRQAPGKERELVAAISSGGRTYYADSVKGRFTISRDNAKNTVYLQMNSLKPEDTAVYYCAARPKAYGRPPGYYWGQGTQVTVSS”, the “polyreactivity (PSR sort gate)” value is “high polyreactivity”.

Consider “QVQLVESGGGLVQAGGSLRLSCAASGSIFYPYAMGWYRQATGKERELVAVITDTGSTYYADSVKGRFTISRDNAKNTVYLQMNSLKPEDTAVYYCYRTSYVKTPTKRYNYWGQGTQVTVSS”, for which the “polyreactivity (PSR sort gate)” value is “low polyreactivity”.

With “QVQLVESGGGLVQAGGSLRLSCAASGSIFYQNAMGWSRQAPGKEWELVAAISWSGGSTYYADSVKGRFTISRDNAKNTDFLQMNSLKPEDTAVYYCNKYVRFRGGAYVTGYDYWGQGTQVTVSS”, the “polyreactivity (PSR sort gate)” value is reported as “high polyreactivity”.

Take “QVQLVESGGGLVQAGGSLRLSCAASGSIFYQYAMGWNRQAPGKERELVAVINRSGSSTYYADSVKGRFTISRDNAKNTVYLQMNSLKPEDNAVYYCAAASKYSEYNYWGQGTEVTVSS”: the “polyreactivity (PSR sort gate)” value is recorded as “high polyreactivity”.

For the sequence “QVQLVESGGGLVQAGGSLRLSCAASGSIFYQYAMGWYRQAPGKEREFVAAITRRGTSTYYADSVKGRFTISRDIAKNTVYLQMNSLKPEDTAVYYCAARYGPNMDYWGQGTQVTVSS”, the “polyreactivity (PSR sort gate)” value was “high polyreactivity”.

“QVQLVESGGGLVQAGGSLRLSCAASGSIFYRNALGWYRQAPGKERELVAAISSDGSTNYADSVKGRFTISRDNAKNTVYLQLNSLKPEDTAVYYCAAPWTQILDYWGQGTQVTVSS”: the “polyreactivity (PSR sort gate)” value is on record as “low polyreactivity”.

Consider “QVQLVESGGGLVQAGGSLRLSCAASGSIFYRNAMGCYIQAPGKERELVAAITSSGVSTYYADSVKGRFTISRDNAKNTVYLQMNSLKPEDTAVYYCAARSVYTGRPYYYWGQGTQVTVSS”, for which the “polyreactivity (PSR sort gate)” value is “high polyreactivity”.

For the sequence “QVQLVESGGGLVQAGGSLRLSCAASGSIFYRNAMGWYRQAPGKERELVAAISASGGSTYYADSVKGRFTISRDNAKNTVYLQMNSLNPEDTAFYYCAVEYRKSRSYYPYYYWGQGTQVTVSS”, the “polyreactivity (PSR sort gate)” value is reported as “high polyreactivity”.

“QVQLVESGGGLVQAGGSLRLSCAASGSIFYRNAMGWYRQAPGKERELVAAISSDGSTNYADSVKGRFTISRDNAKNTVYLQMNSLKPEDTAVYFCAAPWTQILDYWGQGTQVTVSS”: the “polyreactivity (PSR sort gate)” value is on record as “low polyreactivity”.

With “QVQLVESGGGLVQAGGSLRLSCAASGSIFYRNAMGWYRQAPGKERELVAAITSRGGRTYYADSVKGRFTISRDNAKNTVYLQMTSLKPEDTAVYYCAADYRYPAHSYGYWGQGTQVTVSS”, the “polyreactivity (PSR sort gate)” value is given as “high polyreactivity”.

Take “QVQLVESGGGLVQAGGSLRLSCAASGSIFYRNAMGWYRQAPGKERELVAAITWSGVNTYYADSVKGRFTISRDNAKNTVYLQMNSLKPEDTAVYYCAVPSRYWLNRGFDYWGQGTQVTVSS”: the “polyreactivity (PSR sort gate)” value is “low polyreactivity”.

With “QVQLVESGGGLVQAGGSLRLSCAASGSIFYRYAMGGYRQAPGKERELVAAISSRGGSTYYADSVKGRFTISRDTAKNTVYLQMNSLKPEDTAVYYCNKDNHDLELPVEFEYWGQGTQVTVSS”, the “polyreactivity (PSR sort gate)” value is on record as “high polyreactivity”.

For the sequence “QVQLVESGGGLVQAGGSLRLSCAASGSIFYRYVMGWYRQAPGKERELVAAITSDGSTNYADSVKGRFTISRDNAKNTVYLQMNSLKPEDTAVYYCNARSYRGRFDYWGQGTQVTVSS”, the “polyreactivity (PSR sort gate)” value is “low polyreactivity”.

As for “QVQLVESGGGLVQAGGSLRLSCAASGSIFYSNAMGLSRQAPGKEREWVATITSGDSTNYADSVKGRFTISRDNAKNTVYLQMNSLKPEDTAVYYCAADSSLYEWFDWPWERGQSVESWGQGTQVTVSS”, the “polyreactivity (PSR sort gate)” value is “low polyreactivity”.

As for “QVQLVESGGGLVQAGGSLRLSCAASGSIFYSNAMGWYRQAPGKERQLVAAIDSGTSTNYADSVKGRFTISRDNAKNTVYLQMNSLKPEDTAVYYCARLLGPVRDKYDYDYWGQGTQVTVSS”, the “polyreactivity (PSR sort gate)” value is recorded as “low polyreactivity”.

On to “QVQLVESGGGLVQAGGSLRLSCAASGSIFYSYAMGGYRQAPGKERELVAAITDSGDSTYYADSVKGRFTISRDNAKNTVYLQMNSLKPEDTAVYYCAAGFYPYYYWGQGTQVTVSS”, for which the “polyreactivity (PSR sort gate)” value is “low polyreactivity”.

With “QVQLVESGGGLVQAGGSLRLSCAASGSIFYSYAMGWYRHAPGKERELVAAISWDASTYYADSVKGRFTISRDNAKNTVYLQMNSLKPEDTAVYYCNADIPYYFVYDAYDFWGQGTQVTVSS”, the “polyreactivity (PSR sort gate)” value was “low polyreactivity”.

Turning to “QVQLVESGGGLVQAGGSLRLSCAASGSIFYSYAMGWYRQAPGKEREFVATITWSGGRTYYADSVKGRFTISRDNAKNTFYLQMNSLKPEDTAVYYCNKRLFPYKGDYWGQGTQVTVSS”, the “polyreactivity (PSR sort gate)” value is given as “low polyreactivity”.

As to “QVQLVESGGGLVQAGGSLRLSCAASGSIFYSYAMGWYRQAPGKERELVAAITDSGDDTYYADSVKGRFTISRDNAKNTVYLQMNSLKPEDSAVYYCAAEQIYYTSDSSYFVTYDDWGQGTQVSVSS”, the “polyreactivity (PSR sort gate)” value is given as “high polyreactivity”.

Take “QVQLVESGGGLVQAGGSLRLSCAASGSIFYTNAMGWYRPAPGKERELVAAIRTGGSTNYADSVKGRFTISRDNAKNTVYLQMNSLKPEDTAVYYCAAAYGYGHKKYGYWGQATQVTVSS”: the “polyreactivity (PSR sort gate)” value is reported as “low polyreactivity”.

Regarding “QVQLVESGGGLVQAGGSLRLSCAASGSIFYTNAMGWYRQAPGKEMEFVASITYRGSNTYYADSVKGRFTISRDNAKTTVYLQMNSLKPEDTAVYYCGADSFYYRPEYDYWGLGTQVTVSS”, the “polyreactivity (PSR sort gate)” value is reported as “low polyreactivity”.

Regarding “QVQLVESGGGLVQAGGSLRLSCAASGSIFYTNAMGWYRQAPGKERELVAAIRWSGGRTYYADSVKGRFTISRDNAKNTVYLQMNSLKPEDTAVYYCNKVPRTPIPYKYGYWGQGTQVTVSS”, the “polyreactivity (PSR sort gate)” value is “high polyreactivity”.

As to “QVQLVESGGGLVQAGGSLRLSCAASGSIFYTYAMGWYRQAPGKERELVAAISSGGSTNYADSVKGRFTISRDNPKNTVYLQMNSLKPEDTAVYYCAAEYTRSFYIYYRFGYWGQGTQVTVSS”, the “polyreactivity (PSR sort gate)” value was “high polyreactivity”.

“QVQLVESGGGLVQAGGSLRLSCAASGSIFYTYAMGWYRQAPGKERELVAAISSGGSTTYADSVKGRFTISRDNAKNTVYLQMKSLKPEDTAVYYCNTSYRKKKRYYYWGQGTQVTVSS”: the “polyreactivity (PSR sort gate)” value is given as “high polyreactivity”.

For the sequence “QVQLVESGGGLVQAGGSLRLSCAASGSIFYVNAMGWYRQAPGKERELVAAINWSGGRTYYADSVKGRFTISRDTAKNTVYLQMNSLKPEDTAVYYCAATVRRRYERYNYWGQGTQVTVSS”, the “polyreactivity (PSR sort gate)” value is given as “high polyreactivity”.

Take “QVQLVESGGGLVQAGGSLRLSCAASGSIFYVNAMGWYRQAPGKERELVAAISVRGGRTYYADSVKGRFTISRDNAKNTVYLQMNSLKPEDTAVYYCAAKSVYKFGDDYWGQGTQVTVSS”: the “polyreactivity (PSR sort gate)” value was “high polyreactivity”.

On to “QVQLVESGGGLVQAGGSLRLSCAASGSIFYVNAMGWYRQAPGKERELVAVNADSVKGRFTISRDNAKNTVYLQMNSLKPEDTAVYYCAAGVNSTTRIYDYWGQGTQVTVSS”, for which the “polyreactivity (PSR sort gate)” value was “low polyreactivity”.

Take “QVQLVESGGGLVQAGGSLRLSCAASGSIFYVNAMGWYRQEPGKERELVAAISYRGGSTYYADSVKGRFTISRDNAKNTVYLQMNSLKPEDTSVYYCAKRLYGSYHSDYWGQGTQVTVSS”: the “polyreactivity (PSR sort gate)” value is reported as “high polyreactivity”.

In the case of “QVQLVESGGGLVQAGGSLRLSCAASGSIFYVNTIGWYRQAPGKERELVAGITSRGGSTYYADSVKGRFTISRDNAKNTVYLQMNSLKPEDTAVYYCAKRAYGTALYRGYGYWGQGTQVTVSS”, the “polyreactivity (PSR sort gate)” value is reported as “low polyreactivity”.

Regarding “QVQLVESGGGLVQAGGSLRLSCAASGSIFYVNTMGWYRQAPGKERELVAVIDYGGDSTYYADSVKGRFTISRDNAKNTVYLQMNSLKPEDTAVYYCAADAWLLPYNYWGQGTQVTVSS”, the “polyreactivity (PSR sort gate)” value was “low polyreactivity”.
